The target in experiment [1] is TSHR (full length) coated on tubes (human) (UniProt P16473). As to the kind of experiment: inhibition of 125I-K1-18 Fab (competitor) binding to TSHR coated tubes; negative control 10 µg/mL in assay buffer.
Experiment [2] has as its target TSH receptor (TSHR) coated on tubes (human) (UniProt P16473). Description: inhibition of 125I-K1-70 IgG binding to TSHR coated tubes; negative control 0.1 µg/mL in HBD serum pool.
The target of experiment [3] is TSHR (full length) coated on tubes (human) (UniProt P16473). Description: inhibition of 125I-K1-18 Fab (competitor) binding to TSHR coated tubes; negative control 100 µg/mL in assay buffer.
Experiment [4] deals with TSH receptor (TSHR), full length human, coated on tubes (human) (UniProt P16473). As to the kind of experiment: inhibition of 125I-TSH binding to TSHR coated tubes; 100 µg/mL, diluted in assay buffer.
Experiment [5] has as its target TSHR (thyroid stimulating hormone receptor), full length human (human) (UniProt P16473). As to the kind of experiment: negative control; competitor ^125I-K1-70 IgG, TSHR coated tubes; 0.1 µg/mL in assay buffer.
Experiment [6] has as its target TSH receptor (TSHR), full length human, coated on tubes (human) (UniProt P16473). Description: inhibition of 125I-K1-18 IgG binding to TSHR coated tubes; competitor 125I-K1-18 IgG; negative control sample at 10 µg/mL in assay buffer.
For experiment [7] the target is unchanged. Description: inhibition of 125I-K1-18 IgG binding to TSHR coated tubes; competitor 125I-K1-18 IgG; negative control sample at 1 µg/mL in HBD serum.
Experiment [8] shares this target. Description: inhibition of 125I-K1-18 IgG binding to TSHR coated tubes; competitor 125I-K1-18 IgG; negative control sample at 0.1 µg/mL in assay buffer.
Experiment [9] addresses TSHR (thyroid stimulating hormone receptor), full length human (human) (UniProt P16473). As to the kind of experiment: negative control; competitor ^125I-K1-70 IgG, TSHR coated tubes; 10 µg/mL in HBD.
Experiment [10] concerns the target human TSH receptor (full length) coated on ELISA plate wells (human) (UniProt P16473). Description: TSH-biotin binding inhibition ELISA, TSHR coated wells; 0.1 µg/mL in assay buffer; negative control MAb. In general terms: ELISA stands for enzyme-linked immunosorbent assay.
Experiment [11] deals with TSH receptor (full length human TSHR) (human) (UniProt P16473). Description: competition ELISA: inhibition of M22 Fab-peroxidase (competitor) binding to TSHR coated wells; negative control at 0.1 µg/mL diluted in assay buffer.
Experiment [12] deals with TSHR (full length) coated on tubes (human) (UniProt P16473). As to the kind of experiment: inhibition of 125I-K1-18 Fab (competitor) binding to TSHR coated tubes; test sample 0.1 µg/mL in assay buffer.
The target of experiment [13] is TSH receptor (TSHR), full length human, coated on tubes (human) (UniProt P16473). As to the kind of experiment: inhibition of 125I-K1-18 IgG binding to TSHR coated tubes; competitor 125I-K1-18 IgG; sample at 1 µg/mL in assay buffer.
Experiment [14] concerns the target TSH receptor (full length human TSHR) (human) (UniProt P16473). As to the kind of experiment: competition ELISA: inhibition of M22 Fab-peroxidase (competitor) binding to TSHR coated wells; test sample at 0.01 µg/mL diluted in HBD serum pool.
For experiment [15], the target named is TSH receptor (TSHR), full length human, coated on tubes (human) (UniProt P16473). As to the kind of experiment: inhibition of 125I-K1-18 IgG binding to TSHR coated tubes; competitor 125I-K1-18 IgG; sample at 100 µg/mL in HBD serum.
For experiment [16], the target named is thyroid stimulating hormone receptor (TSHR), full length human TSHR (human) (UniProt P16473). Description: TSH-biotin competition ELISA, TSHR coated wells; 0.01 µg/mL in assay buffer.
Experiment [17] deals with TSHR (thyroid stimulating hormone receptor), full length human (human) (UniProt P16473). As to the kind of experiment: competitor ^125I-K1-70 IgG, TSHR coated tubes; 10 µg/mL in HBD.
Experiment [18] shares this target. Description: competitor ^125I-K1-70 IgG, TSHR coated tubes; 100 µg/mL in HBD.
Experiment [19] has as its target human TSH receptor (full length) coated on ELISA plate wells (human) (UniProt P16473). As to the kind of experiment: TSH-biotin binding inhibition ELISA, TSHR coated wells; 0.001 µg/mL in assay buffer + 100 µg/mL 5B3 IgG.
In experiment [20] the target is TSH receptor (full length human TSHR) coated on tubes (human) (UniProt P16473). As to the kind of experiment: 125I-TSH binding inhibition, TSHR coated tubes; 10 ng/mL, in assay buffer.
The target in experiment [21] is TSH receptor (TSHR), full length human, coated on tubes (human) (UniProt P16473). Description: inhibition of 125I-TSH binding to TSHR coated tubes; 0.001 µg/mL, diluted in assay buffer.
Experiment [22] deals with human TSH receptor (full length) coated on ELISA plate wells (human) (UniProt P16473). Description: TSH-biotin binding inhibition ELISA, TSHR coated wells; 1 µg/mL in assay buffer.
Experiment [23] shares this target. As to the kind of experiment: TSH-biotin binding inhibition ELISA, TSHR coated wells; 0.01 µg/mL in assay buffer.
The target is the same in experiment [24]. Description: TSH-biotin binding inhibition ELISA, TSHR coated wells; 10 µg/mL in assay buffer.
The target in experiment [25] is thyroid stimulating hormone receptor (full length human TSHR) (human) (UniProt P16473). As to the kind of experiment: ELISA: inhibition of M22 Fab-peroxidase (competitor) binding to TSHR coated wells; 10 µg/mL, diluted in assay buffer.
For experiment [26] the target is unchanged. Description: ELISA, inhibition of TSH-biotin binding to TSHR coated wells; 0.01 µg/mL, diluted in assay buffer.
Experiment [27] deals with TSH receptor (TSHR), full length human, coated on tubes (human) (UniProt P16473). As to the kind of experiment: inhibition of 125I-TSH binding to TSHR coated tubes; 1 µg/mL, diluted in assay buffer.

Consider 5B3 IgG (antibody), for which the Inhibition of binding (%) in experiment [1] was 0.6%; in [2] it was 9.4%; in [3], 6.3%; in experiment [4], 22.4%; in experiment [5], -1.2%; in experiment [6], -2.7%. For the same molecule, the Inhibition of binding (%) is -6.2% in experiment [7], -4.8% in [8], -1.5% in experiment [9] and 1.4% in [11]. Besides, in experiment [10], the % inhibition of TSH-biotin binding is -2%.

On to 9D33 IgG (antibody), for which the Inhibition of binding (%) in experiment [12] amounted to 48.6%; in [13], 63%; in experiment [14], 6.2%; in [15], 68.7%; in experiment [16], 15.3%; in experiment [17], 48%. Also, the Inhibition of binding (%) in [18] was 51.1%.

Consider M22 IgG (antibody), for which, in experiment [19], the % inhibition of TSH-biotin binding was -7.7%. In addition, the Inhibition of binding (%) in [20] was 26.4%.

B1: 5C9 IgG (antibody, from another filing, V domains shown)
VH: EVQLVESGGGLIQPGGSLRLSCAASGFTVSSNYMSWVRQAPGKGLEWVSVTYSGGSTSYADSVKGRFTISRDNSKNTLYLQMNSLRAEDTAVYYCARGGRYCSSISCYARSGCDYWGQGTLVTVSS
VL: AIQMTQSPSSLSASVGDRVTITCRASQSISNYLNWYQQKPGKAPKLLIYAASSLQSGVPSRFSGSGSGTDFTLTISSLQPEDFATYYCQQSYSSPSTTFGQGTKLEIK
For the molecule B1, the Inhibition of binding (%) in experiment [21] is -11.2%; in experiment [25], 13.2%; in [26], 7.5%; in [27], 38.7%. For the same molecule, the % inhibition of TSH-biotin binding turned out to be 42.9% in experiment [22], 16.1% in experiment [23] and 58.2% in [24].

These data come from patent publication US20110300138A1 (published 2011).
